The source of these data is patent US20260191974A1, “B7-H3 TARGETING LIGANDS AND METHODS OF USE” (The University of North Carolina at Chapel Hill, priority 2022, published 2026).

A word on the Kd: it is the free concentration of one partner at which half of the binding sites on the other are occupied at equilibrium, for simple one-to-one binding. A low value points to a tighter complex. One may read the koff as a measure of how fast the partners let go of each other. The low end stands for a long-lived complex, the high end for a short-lived complex. As usually defined, the kon is a measure of how fast the partners come together.

For experiment [1], the target named is T1, biotinylated B7-H3 (B7-H3b), immune checkpoint protein.
T1 sequence (Q5ZPR3 whole entry, species assumed, looked up): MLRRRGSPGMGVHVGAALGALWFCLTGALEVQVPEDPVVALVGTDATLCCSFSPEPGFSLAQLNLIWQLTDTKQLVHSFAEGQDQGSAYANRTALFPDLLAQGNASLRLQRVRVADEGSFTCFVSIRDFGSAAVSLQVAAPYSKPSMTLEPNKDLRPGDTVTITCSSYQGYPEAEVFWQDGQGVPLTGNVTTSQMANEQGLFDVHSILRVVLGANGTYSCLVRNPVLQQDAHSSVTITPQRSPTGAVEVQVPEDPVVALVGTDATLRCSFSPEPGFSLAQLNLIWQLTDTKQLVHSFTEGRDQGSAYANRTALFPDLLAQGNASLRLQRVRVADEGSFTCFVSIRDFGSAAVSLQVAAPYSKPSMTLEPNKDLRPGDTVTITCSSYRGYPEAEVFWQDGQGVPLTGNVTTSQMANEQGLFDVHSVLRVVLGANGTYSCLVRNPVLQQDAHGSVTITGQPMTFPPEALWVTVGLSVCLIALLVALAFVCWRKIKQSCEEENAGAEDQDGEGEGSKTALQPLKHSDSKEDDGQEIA
The experiment can be described thus: SPR, biotinylated B7-H3 on NeutrAvidin chip, peptide as analyte. Background: SPR reads the build-up and loss of mass on a sensor chip optically.

Experiment [2] has the same target. The experiment can be described thus: SPR (BIACORE 8K, single-cycle kinetics, 1:1 fit); biotinylated B7-H3 on a NeutrAvidin chip, peptide as analyte at 7.5-120 nM.

B1: Met9Nle variant of B1.1 (methionine to norleucine variant of the selected cyclic, disulfide peptide) (peptide)
peptide: WALQLCHSXFYTCKSG
modifications: norleucine (Nle) at position 9; N-terminal acetylation (ac); lactam bridge Q4-K14; disulfide bond C6-C13
Take B1: the equilibrium dissociation constant (Kd) in experiment [1] was determined as 46.9 nM. In experiment [2], this molecule registered an off-rate constant (koff) of 0.0448 s⁻¹ and a kon of 955000 M⁻¹ s⁻¹.
